Percent of β-casein hydrolyzed, band intensity on SDS-PAGE, hydrolysis of Azocoll, absorbance and proteolytic activity (U/mg), casein as substrate data for one substance are collected here from US5976859.

In the case of protease Q (enzyme), in the test with β-casein, the percent of β-casein hydrolyzed, band intensity on SDS-PAGE amounted to 87 % hydrolyzed. For the same substance, in the test with Azocoll, the hydrolysis of Azocoll, absorbance at 520 nm (% of original activity) is 47. In addition, the proteolytic activity (U/mg), casein as substrate with casein came out at 4290 U/mg.
